Test results reported in article PMC9352346, “Arl15 upregulates the TGFβ family signaling by promoting the assembly of the Smad-complex” (eLife, 2022).

T1: His-Smad4 (UniProt Q13485 1-552)
T1 construct: Smad4; also called purified His-tagged Smad4; source: E. coli BL21, purified (nickel-nitrilotriacetic acid agarose)
T1 sequence (looked up): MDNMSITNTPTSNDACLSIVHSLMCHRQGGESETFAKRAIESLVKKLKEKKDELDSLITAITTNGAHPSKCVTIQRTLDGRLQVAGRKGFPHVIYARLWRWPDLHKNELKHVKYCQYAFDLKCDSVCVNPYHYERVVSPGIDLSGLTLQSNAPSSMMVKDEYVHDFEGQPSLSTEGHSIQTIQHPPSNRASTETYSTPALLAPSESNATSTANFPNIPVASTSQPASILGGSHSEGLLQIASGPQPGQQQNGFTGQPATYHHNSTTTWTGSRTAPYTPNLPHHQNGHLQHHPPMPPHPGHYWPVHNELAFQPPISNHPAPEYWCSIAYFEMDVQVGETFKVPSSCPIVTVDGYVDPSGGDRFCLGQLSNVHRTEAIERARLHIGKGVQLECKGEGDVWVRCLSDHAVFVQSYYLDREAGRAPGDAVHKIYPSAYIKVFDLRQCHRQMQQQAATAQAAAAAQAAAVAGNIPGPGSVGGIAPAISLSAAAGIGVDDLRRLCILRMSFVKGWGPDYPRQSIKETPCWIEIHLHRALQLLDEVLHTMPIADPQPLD


Target: T1, His-Smad4
Assay: pull-down; bead-immobilized GST-Arl15-AL incubated with purified His-tagged Smads (His-Smad4, His-Smad2-SE, alone or together); immunoblotted against His-tag
Conditions: both partners purified

binding result	Binder
binds	GST-Arl15-AL (natural protein, human, UniProt Q9NXU5 1-204, looked up, Arl15, human, A86L; also called bead-immobilized Arl15-AL; GST-Arl15-A86L; source: E. coli BL21, purified (Glutathione Sepharose 4B)) MSDLRITEAFLYMDYLCFRALCCKGPPPARPEYDLVCIGLTGSGKTSLLSKLCSESPDNVVSTTGFSIKAVPFQNAILNVKELGGLDNIRKYWSRYYQGSQGVIFVLDSASSEDDLEAARNELHSALQHPQLCTLPFLILANHQDKPAARSVQEIKKYFELEPLARGKRWILQPCSLDDMDALKDSFSQLINLLEEKDHEAVRM
binds	His-Smad2-SE (natural protein, UniProt Q15796 1-467, looked up, Smad2 with phosphomimetic mutations S465E/S467E; also called His-Smad2 with S465E/S467E mutations; source: E. coli BL21, purified (nickel-nitrilotriacetic acid agarose)) MSSILPFTPPVVKRLLGWKKSAGGSGGAGGGEQNGQEEKWCEKAVKSLVKKLKKTGRLDELEKAITTQNCNTKCVTIPSTCSEIWGLSTPNTIDQWDTTGLYSFSEQTRSLDGRLQVSHRKGLPHVIYCRLWRWPDLHSHHELKAIENCEYAFNLKKDEVCVNPYHYQRVETPVLPPVLVPRHTEILTELPPLDDYTHSIPENTNFPAGIEPQSNYIPETPPPGYISEDGETSDQQLNQSMDTGSPAELSPTTLSPVNHSLDLQPVTYSEPAFWCSIAYYELNQRVGETFHASQPSLTVDGFTDPSNSERFCLGLLSNVNRNATVEMTRRHIGRGVRLYYIGGEVFAECLSDSAIFVQSPNCNQRYGWHPATVCKIPPGCNLKIFNNQEFAALLAQSVNQGFEAVYQLTRMCTIRMSFVKGWGAEYRRQTVTSTPCWIELHLNGPLQWLDKVLTQMGSPSVRCSEME
